In assay [1] the target is T1, recombinant human FAP (rhFAP) (Homo sapiens, UniProt Q12884).
T1 construct: purchased Sino Biologicals 10464-H07H
T1 sequence (Q12884 26-760 limits assumed): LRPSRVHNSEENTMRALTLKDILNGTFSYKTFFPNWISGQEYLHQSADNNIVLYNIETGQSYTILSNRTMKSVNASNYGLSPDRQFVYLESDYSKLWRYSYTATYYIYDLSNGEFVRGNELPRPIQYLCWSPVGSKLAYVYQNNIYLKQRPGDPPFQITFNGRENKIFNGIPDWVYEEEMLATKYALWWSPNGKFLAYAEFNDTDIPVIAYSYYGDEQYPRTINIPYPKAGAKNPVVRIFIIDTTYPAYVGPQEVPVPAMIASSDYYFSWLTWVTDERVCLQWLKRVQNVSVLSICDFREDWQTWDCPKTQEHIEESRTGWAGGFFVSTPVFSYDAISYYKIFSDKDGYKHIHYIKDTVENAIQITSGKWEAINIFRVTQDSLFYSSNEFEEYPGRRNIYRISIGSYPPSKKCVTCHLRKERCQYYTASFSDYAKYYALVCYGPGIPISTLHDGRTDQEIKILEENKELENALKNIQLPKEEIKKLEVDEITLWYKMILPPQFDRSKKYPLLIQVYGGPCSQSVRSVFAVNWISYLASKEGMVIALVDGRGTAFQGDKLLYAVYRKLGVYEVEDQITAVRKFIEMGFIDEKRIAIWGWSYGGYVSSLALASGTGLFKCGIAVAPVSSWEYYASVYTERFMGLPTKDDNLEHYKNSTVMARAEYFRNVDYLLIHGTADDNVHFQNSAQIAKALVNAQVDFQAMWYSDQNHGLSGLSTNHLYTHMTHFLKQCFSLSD
Nature of the assay: Affinity (EC50) sandwich ELISA on SB9 oligopeptidase family. The class given is binding. Particulars: HRP-labelled antibody 0.004-400 nM. The method, then: To determine the binding efficiency and inhibitory ability of NI-206.82C2 against other members of the SB9 oligopeptidase family that have sequence similarity to FAP, indirect ELISA and inhibition assays were performed on active enzyme targets. Active recombinant human enzymes evaluated in this assay include: Fibroblast Activation Protein (FAP; Sino Biologicals, 10464-H07H), Dipeptidyl Peptidase IV (DPPIV, BPS Bioscience 80040), Dipeptidyl Peptidase 8 (DPP8, BPS Bioscience 80080), Dipeptidyl Peptidase 9 (DPP9, BPS Bioscience […]), and Prolyl Oligopeptidase/Prolyl Endopeptidase (POP/PREP, BPS Bioscience 80105). Each recombinant peptidase was expressed with a purification tag, and attached to the 96 well ELISA plate using either a mouse anti-Histidine antibody (CloneTech), or a mouse anti-Glutathione S-transferase (GST, Sino Biologicals, 111213-MM02) tag antibody. Each enzyme was validated to bind and remained active on the ELISA plate using enzyme specific fluorogenic substrates. H-Gly-Pro-AMC (ATT Bioquest, 13450) was used to validate the presence and activity of DPP4, DPP9, and DPP8. […] Following a washing step, bound antibody was detected using 3,3′,5,5′-Tetramethylbenzidine (TMB) substrate. The reaction was stopped after 10 minutes by adding 2N H2SO4 and the resulting change in optical density was quantified using an ELISA plate reader at […] absorbance (FIG. 7 B).
(ELISA stands for enzyme-linked immunosorbent assay.)

The target of assay [2] is directly coated FAP peptides mixture (cFAP). As to the kind of experiment: Direct ELISA, mixture of FAP-specific peptides directly coated. The format is binding, human. Particulars: non-linear regression. The procedure:
ELISA assays were performed with varying antibody concentrations to validate the binding of the exemplary antibodies of the present invention to FAP and to be able to determine their half maximal effective concentration (EC50). For the exemplary recombinant human NI-206.82C2, NI-206.59B4, NI-206.22F7, NI-206.27E8, NI-206.12G4 and NI-206.17A6 antibodies, 96-well microplates (Costar, Corning, USA) were coated with FAP, with a mixture of the 3 peptides or with BSA (Sigma-Aldrich, Buchs, Switzerland) diluted to a concentration of 5 μg/ml in carbonate ELISA coating buffer (15 mM Na2CO3, 35 mM NaHCO3, pH 9.4) for the direct ELISA. For the capture ELISA, the microplates were coated with mouse anti-His monoclonal antibody (Clontech) diluted to a concentration of 3 μg/ml in PBS, the plates were then blocked, FAP or BSA were diluted to a concentration of 2 μg/ml in PBS and added to the plates to be captured. The binding efficiency of the antibodies was then tested. The exemplary NI-206.82C2 antibody specifically and strongly binds to the captured FAP and less efficiently to the directly coated FAP. The exemplary NI-206.59B4 antibody specifically, strongly and similarly binds to the captured FAP and to the directly coated FAP.
The EC50 values were estimated by a non-linear regression using GraphPad Prism (San Diego, USA) software. […] The binding of NI-206.12G4 towards sFAP was not tested.

In a further assay the target is T2, rhFAP (Homo sapiens, UniProt Q12884).
T2 construct: purchased Sino Biologicals 10464-H07H
T2 sequence (Q12884 26-760 limits assumed): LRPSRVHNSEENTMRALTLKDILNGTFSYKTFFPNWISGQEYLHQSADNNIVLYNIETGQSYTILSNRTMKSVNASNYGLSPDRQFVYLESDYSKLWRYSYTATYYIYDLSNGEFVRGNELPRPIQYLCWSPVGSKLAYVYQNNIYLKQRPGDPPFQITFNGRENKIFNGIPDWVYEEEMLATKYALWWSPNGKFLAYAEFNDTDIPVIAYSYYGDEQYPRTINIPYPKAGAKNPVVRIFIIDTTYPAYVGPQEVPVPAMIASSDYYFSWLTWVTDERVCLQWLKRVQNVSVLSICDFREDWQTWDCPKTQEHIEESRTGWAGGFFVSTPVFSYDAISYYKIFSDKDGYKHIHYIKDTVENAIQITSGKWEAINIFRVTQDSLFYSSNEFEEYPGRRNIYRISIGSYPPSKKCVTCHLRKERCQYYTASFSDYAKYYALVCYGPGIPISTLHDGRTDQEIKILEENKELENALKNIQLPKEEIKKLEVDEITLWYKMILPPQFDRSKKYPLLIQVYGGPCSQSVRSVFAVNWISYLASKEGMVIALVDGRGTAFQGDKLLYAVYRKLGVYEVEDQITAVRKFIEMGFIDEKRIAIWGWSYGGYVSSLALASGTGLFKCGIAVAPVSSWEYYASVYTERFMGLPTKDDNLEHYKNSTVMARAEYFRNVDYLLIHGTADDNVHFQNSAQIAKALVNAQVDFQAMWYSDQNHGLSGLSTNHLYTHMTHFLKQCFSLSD
Nature of the assay: Mechanism of inhibition of rhuFAP-mediated PEP (Z-Gly-Pro-AMC) cleavage. The class given is biochemical. Particulars: 0, 10, 100, 1000 nM antibody, 20-100 μM Z-Gly-Pro-AMC, Lineweaver-Burk plot. The procedure: A black flat bottom standard 96-well ELISA plate was blocked for 1 hr at 37° C. using sterile blocking buffer: 5% bovine serum albumin (BSA) in phosphate buffered saline (PBS). 10 μL of recombinant human FAP solution: 0.4 nM recombinant human FAP (Sino Biologicals, 10464-H07H), in 225 mM Sodium phosphate buffer, pH 7.4) was added to each well. Then, 80 μL of NI-206.82C2 at the indicated concentrations in PBS were added to the wells incubated for 1 hr at 37° C. Then, 10 μL of fluorogenic substrate solution (Z-Gly-Pro-AMC in 40% methanol and 60% 25 […]) was added to each well. The fluorescence intensity was measured at 360 nm excitation and 460 nm emission every 3 min over a total reading time of 2 hr.

Assay [3] relates to human invasive ductal carcinoma and invasive lobular carcinoma sections. As to the kind of experiment: Confocal immunofluorescence on human carcinoma cryosections. Particulars: Cyanine 3 labelled antibody. The method, then: NI-206.82C2 was labelled with Cyanine 3 for fluorescent imaging (Cy3 conjugation kit: Innova Biosciences, 340-0030) and antibody labelling was validated using a spectophotometer. Cryosections from human invasive ductal carcinoma tissues (FIG. 9, A) and invasive lobular carcinoma (FIG. 9, B) were fixed for 5 minutes in ice cold acetone and allowed to dry for 10 minutes before washing in PBS. The sections were then incubated for 1 hr at room temperature in 5% BSA in PBS. The tissue sections were then incubated with Cyanine 3 prelabelled antibodies overnight at 4° C., and then washed three times in PBS before incubation with DAPI at 0.5 μg/mL. Sections were then washed three additional times in PBS and mounted in Lisbeth's mounting medium before imaging on a SP8 confocal microscope (Leica Microsystems).

From patent publication US20170369592A1, “NOVEL ANTI-FIBROBLAST ACTIVATION PROTEIN (FAP) ANTIBODIES AND USES DERIVED THEREOF” (Mabimmune Diagnostics AG, priority 2015, published 2017) come the findings set out here.

B1: NI-206.82C2: recombinant human memory B cell-derived monoclonal anti-FAP IgG1 antibody, variable regions in FIG. 1A, FAP inhibitory (antibody, V domains shown)
VH: QVQLQQSGPGLVKPSQTLSLTCAISGDSVSSNSVTWNWIRQSPSRGLEWLGRTYYRSKWYNDYAVSVKGRITINPDTSKNQFYLQLKSVTPEDAAVYYCARDSSILYGDYWGQGTLVTVSS
VL: QAVLTQPSSLSASPGASASLTCTLPSGINVGTYRIFWFQQKPGSPPQYLLSYKSDSDNHQGSGVPSRFSGSKDASANAGILLISGLQSEDEADYYCMIWHSSAWVFGGGTKLTVL
Regarding B1, the “binding to rhFAP” value in assay [1] is on record as “selectively binds”. Moreover, the “EC50, binding to directly coated FAP peptides mixture (cFAP)” value in assay [2] is given as “did not show any binding”. In addition, the “mechanism of inhibition of FAP-mediated PEP cleavage” value with rhFAP is recorded as “non-competitive inhibitor”. The “binding to human invasive ductal carcinoma and invasive lobular carcinoma sections” value in assay [3] was “specifically binds”.
